Reference: the supplement of paper PMC9732359
± gives the uncertainty stated by the source.

Assay: protein stability index of a GFP-peptide fusion (yeast GPS) (PSI 1-4); higher = more stable; sorted into four equal gates, so the index is relative within each strain
How it was run: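 Plasmids in a pooled yeast library fused tiled 17-residue yeast protein peptides downstream of GFP and also expressed Cherry. Mid-log cultures grown without leucine were sorted into four equal gates by GFP/Cherry fluorescence ratio. Each gate's plasmids were PCR-amplified and Illumina-sequenced, and reads were matched to strains by barcodes. The protein stability index is derived by multiplying each gate's read frequency by its gate number and summing the results.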

Sequence | protein stability index (doa10∆) | protein stability index (pdr5∆) | protein stability index (ubr1∆) | protein stability index (san1∆)
NTAFGNSNPTSNVFGSN [YJL041W/NSP1] | 3.06 ± 0.13 | 3.6 ± 0.17 | 3.6 ± 0.16 | 
NTEKDYKMVQEQLSKQR [SMC2] | 3.27 ± 0.065 | 3.17 ± 0.072 | 3.23 ± 0.043 | 3.25 ± 0.045
NTENNDPDIPMTIDLEP [IRR1] | 3.07 ± 0.17 | 2.94 ± 0.16 | 3.14 ± 0.12 | 2.48 ± 0.19
NTFKVLSKFFFFIFVFN [COB] | 1.66 ± 0.078 | 1.41 ± 0.1 | 1.29 ± 0.077 | 1.32 ± 0.2
NTHWGLVCPAETPEGQA [RPB2] | 1.53 ± 0.14 | 1.49 ± 0.1 | 1.14 ± 0.097 | 1.78 ± 0.15
NTLEEFEHGRTPAEMSR [FAS2] | 2.8 ± 0.15 | 3.09 ± 0.16 | 3.57 ± 0.15 | 3.19 ± 0.16
NTLLQQQNYSKVLLPSI [SWI1] | 2.07 ± 0.077 | 2.9 ± 0.11 | 3.09 ± 0.095 | 2.79 ± 0.076
NTLNIDNTARVIFDASI [BRN1] | 2.14 ± 0.05 | 2.28 ± 0.039 | 2.37 ± 0.032 | 2.23 ± 0.056
NTNGTNASANSTSFSFN [YOR098C/NUP1] | 2.91 ± 0.045 | 3.12 ± 0.045 | 3.06 ± 0.031 | 2.99 ± 0.042
NTNNNNTNNNNNPANNT [SWI1] | 3.35 ± 0.044 | 3.354 ± 0.033 | 3.3 ± 0.044 | 3.409 ± 0.027
NTQLHGPSATDPETTAT [RGR1] | 3.01 ± 0.094 | 2.89 ± 0.088 | 2.81 ± 0.068 | 2.65 ± 0.073
NTSAQHVESDKITAKTQ [IRR1] | 2.92 ± 0.05 | 2.99 ± 0.039 | 3.08 ± 0.042 | 2.95 ± 0.05
NTSVLMKLKLMIVYYKD [YCS4] | 1.56 ± 0.15 | 1.56 ± 0.12 | 1.29 ± 0.11 | 1.32 ± 0.21
NTVDGDLLKLVHLSNGY [FAS1] | 2.86 ± 0.07 | 2.52 ± 0.056 | 2.46 ± 0.064 | 2.31 ± 0.076
NTYKRLVIGIFKRDLLR [YJL039C/NUP192] | 2.5 ± 0.082 | 1.58 ± 0.083 | 1.59 ± 0.055 | 1.31 ± 0.13
NVESVGSIPVDQVVVRG [RPB3] | 2.63 ± 0.057 | 2.45 ± 0.072 | 2.23 ± 0.059 | 2.3 ± 0.07
NVFVILMDKCLPKVRIR [DIS3] | 2.96 ± 0.088 | 1.87 ± 0.05 | 1.65 ± 0.047 | 1.87 ± 0.07
NVGLPILKSLKNRSNRK [YOR098C/NUP1] | 3.07 ± 0.075 | 3.1 ± 0.078 | 3.11 ± 0.049 | 2.88 ± 0.064
NVKNYSTTQEILEFITA [RPC34] | 1.28 ± 0.24 | 1.45 ± 0.088 | 1.25 ± 0.15 | 1.18 ± 0.18
NVLNRIQELEDQRDELL [ITC1] | 3.39 ± 0.12 | 3.15 ± 0.085 | 3.56 ± 0.12 | 3.5 ± 0.077
NVNKKALGQDTEKMEEQ [MED11] | 2.88 ± 0.059 | 2.94 ± 0.055 | 3.04 ± 0.05 | 2.88 ± 0.034
NVPGVETANVASLNLLQ [RPL4A] | 2.71 ± 0.053 | 3.05 ± 0.055 | 2.87 ± 0.041 | 2.86 ± 0.044
NVSLIKIEGVATPQEAQ [RPL33B] | 2.76 ± 0.07 | 2.78 ± 0.096 | 2.61 ± 0.055 | 2.92 ± 0.074
NVTMIDDLIHFTLKQWN [COR1] | 2.49 ± 0.14 | 2.89 ± 0.16 | 2.74 ± 0.099 | 2.79 ± 0.081
NVVPYHRNTSDYYYEDA [SWI1] | 2.85 ± 0.085 | 3.13 ± 0.075 | 3.08 ± 0.055 | 3.03 ± 0.08
NYAMTRNILHNTVPQVT [SRB5] | 1.7 ± 0.055 | 2.15 ± 0.061 | 1.74 ± 0.038 | 1.66 ± 0.08

Sequence | protein stability index (doa10∆) | protein stability index (pdr5∆) | protein stability index (ubr1∆) | protein stability index (san1∆)
NYHPMNIDETSDEVSRG [SMC4] | 3.17 ± 0.082 | 3.17 ± 0.064 | 3.14 ± 0.041 | 3.23 ± 0.054
NYIENMNEMCKKINAKE [RPN8] | 2.84 ± 0.045 | 3.07 ± 0.059 | 3 ± 0.039 | 3.12 ± 0.043
NYKQLTLVGGGAKITPE [RRP43] | 1.86 ± 0.11 | 1.94 ± 0.11 | 2.01 ± 0.15 | 2.22 ± 0.18
NYLKYLEYWCNPPYSQC [SOH1] | 2.14 ± 0.052 | 2.25 ± 0.048 | 2.28 ± 0.036 | 2.18 ± 0.063
NYLLKRNEDARRNLRYG [RPO31] | 3.35 ± 0.1 | 3.41 ± 0.094 | 3.56 ± 0.056 | 3.51 ± 0.12
NYLRQQCNYSSLVFNRK [PRE5] | 2.71 ± 0.17 | 2.94 ± 0.11 | 2.75 ± 0.088 | 
NYNRIAKICALLFFNFS [NUT1] | 1.89 ± 0.048 | 1.8 ± 0.047 | 1.61 ± 0.031 | 1.37 ± 0.082
PAELEGLLDLERVIVVT [FAS2] | 2.38 ± 0.1 | 2.11 ± 0.064 | 1.77 ± 0.11 | 1.78 ± 0.17
PALLRPGRLDRKIEFPS [RPT3] | 3.2 ± 0.11 | 3.08 ± 0.11 | 3 ± 0.066 | 3.07 ± 0.11
PAMAMEDLKNFIFQIIE [SRB8] | 2.62 ± 0.065 | 2.9 ± 0.074 | 1.71 ± 0.05 | 2.73 ± 0.078
PASNILRRTTQRVFDET [YDL116W/NUP84] | 2.66 ± 0.13 | 2.66 ± 0.061 | 2.62 ± 0.1 | 2.77 ± 0.13
PAWRVWLNFLRGTIPLL [PRP8] | 2.38 ± 0.089 | 1.88 ± 0.071 | 2.96 ± 0.083 | 1.33 ± 0.1
PDFLSKYSAITSSIFQE [NUT1] | 1.88 ± 0.041 | 2.05 ± 0.042 | 2 ± 0.033 | 2.05 ± 0.06
PDLNIDRNNSTNQIFQS [SIN4] | 3.1 ± 0.29 |  | 2.19 ± 0.15 | 2.7 ± 0.21
PDTSNEICDLAYQYVRA [SRB2] | 2.83 ± 0.046 | 2.93 ± 0.04 | 3 ± 0.041 | 2.95 ± 0.046
PDYYMIIKYPVAFDNIN [SNF2] | 2.78 ± 0.14 | 2.08 ± 0.12 | 2.44 ± 0.15 | 1.97 ± 0.12
PEDLNSLYIYYLIKLLG [SIR2] | 2.07 ± 0.053 | 2.15 ± 0.05 | 1.95 ± 0.056 | 2.18 ± 0.064
PEEATTIFSVMVEWLES [PRP8] | 1.76 ± 0.076 | 1.26 ± 0.093 | 1.77 ± 0.13 | 1.28 ± 0.14
PEIDNLDDLVVLKKKNI [RRP6] | 2.37 ± 0.067 | 2.15 ± 0.052 | 2.79 ± 0.066 | 2.59 ± 0.089
PEIGNRKINLFYLYMLV [SWI1] | 1.54 ± 0.1 | 1.32 ± 0.054 | 2.22 ± 0.094 | 1.1 ± 0.22
PENITKREASRGFFDIL [MCD1] | 3.1 ± 0.08 | 3.01 ± 0.082 | 3.21 ± 0.058 | 3.13 ± 0.062
PEREVLVRELYQWRDLI [RRP6] | 2.91 ± 0.057 | 2.78 ± 0.07 | 2.58 ± 0.049 | 2.67 ± 0.066
PERWLPLRDRSTYRPKK [SRP72] | 3.29 ± 0.2 | 3.05 ± 0.22 | 3.64 ± 0.28 | 2.89 ± 0.2
PEYYSTARVMGGLKNGV [DIS3] | 3.15 ± 0.093 | 3.24 ± 0.1 | 3.01 ± 0.082 | 3.23 ± 0.052
PFFARFKLRIQTTEGYD [RPB11] |  | 1.37 ± 0.12 |  | 1.37 ± 0.26
